# Patent publication US20160304615A1
# How the values were obtained:
# EGFRvIII-mFc (human) [1] = assay: SPR 37C, mAb-capture
# EGFR-mFc (human) = assay: SPR 37C, receptor-capture
# EGFRvIII-mFc (human) [2] = assay: SPR 37C, receptor-capture
# EGFRvIII-mmh (human) [3] = target: EGFRvIII-mmh (human) (UniProt P00533); assay: SPR 37C, mAb-capture
# [4] = target: wild-type human EGFR on cells (human) (UniProt P00533); assay: FACS, A431 cells, PE secondary antibody
# [5] = target: full-length hEGFRvIII on cells (human) (UniProt P00533); assay: FACS, HEK293/EGFRvIII cells, PE secondary antibody
# [6] = target: C-terminal biotin-labeled EGFRvIII junctional peptide (human); assay: ELISA
# [7] = target: EGFRvIII junctional peptide (human); assay: ELISA
# EGFRvIII-mmh (human) [8] = target: EGFRvIII-mmh (human) (UniProt P00533); assay: ELISA
# [9] = target: N-terminal biotin-labeled EGFRvIII junctional peptide (human); assay: ELISA
# [10] = target: full-length hEGFRvIII on cells (human) (UniProt P00533); assay: cell-based or functional assay
# [11] = target: wild-type human EGFR on cells (human) (UniProt P00533); assay: FACS, A431 cells, directly labeled antibody
# EGFRvIII-mmh (human) [12] = target: EGFRvIII-mmh (human) (UniProt P00533); assay: SPR, captured hEGFRvIII-mmh; no first antibody
# [13] = target: full-length hEGFRvIII on cells (human) (UniProt P00533); assay: FACS, HEK293/EGFRvIII cells, directly labeled antibody
# EGFRvIII-mmh (human) [14] = target: EGFRvIII-mmh (human) (UniProt P00533); assay: SPR coinjection; competitor (first antibody): Control I
# EGFRvIII-mmh (human) [15] = target: EGFRvIII-mmh (human) (UniProt P00533); assay: SPR coinjection; competitor (first antibody): Control II
# EGFRvIII-mmh (human) [16] = target: EGFRvIII-mmh (human) (UniProt P00533); assay: SPR coinjection; competitor (first antibody): Control III
# EGFRvIII-mmh (human) [17] = target: EGFRvIII-mmh (human) (UniProt P00533); assay: SPR coinjection; competitor (first antibody): H1H1863N2(Fuc-)
# EGFR-mmh (human) = EGFR-mmh (human) (UniProt P00533); assay: ELISA
Kd (EGFRvIII-mFc (human) [1]),T½ (EGFRvIII-mFc (human) [1]),Kd (EGFR-mFc (human)),T½ (EGFR-mFc (human)),Kd (EGFRvIII-mFc (human) [2]),T½ (EGFRvIII-mFc (human) [2]),koff (EGFRvIII-mFc (human) [1]),kon (EGFRvIII-mFc (human) [1]),Kd (EGFRvIII-mmh (human) [3]),T½ (EGFRvIII-mmh (human) [3]),koff (EGFRvIII-mmh (human) [3]),kon (EGFRvIII-mmh (human) [3]),A431 MFI [4],Fold Above Background [4],HEK293/EGFRvIII MFI [5],Ratio (EGFRvIII MFI/parental MFI) [5],EC50 (EGFRvIII-mmh (human) [8]),"Fluorescent Intensity of vesicles 4° C., Mean [10]","Fluorescent Intensity of vesicles 37° C., Mean [10]",A431 MFI [11],Substance,other results
1.18 nM,39 min,0.215 nM,187 min,0.00067 nM,192 h,,,,,,,,,,,,,,,"Control III: Humanized anti-EGFRvIII antibody (hIgG1) with the variable domains of the ""hu806"" antibody of US 2010/0056762",
1.95 nM,31 min,,,,,0.000371 s⁻¹,191000 M⁻¹ s⁻¹,82 nM,1 min,0.0159 s⁻¹,194000 M⁻¹ s⁻¹,4240 MFI,3 fold,997000 MFI,85,,,,,"Control V: Human anti-EGFRvIII antibody (IgG1) with the variable domains of the ""131"" antibody of U.S. Pat. No. 7,736,644 B2",
103 nM,1.6 min,,,9.06 nM,0.0483 h,,,1190 nM,0.1 min,,,1450 MFI,,272000 MFI,,0.0094 nM,22000,264000,9650 MFI,"Control I: Human anti-EGFRvIII antibody (IgG1) with the variable domains of the ""13.1.2"" antibody of U.S. Pat. No. 7,736,644",EC50 [6]: 0.0153 nM; EC50 [7]: 0.118 nM; EC50 [9]: 0.0106 nM; Second Antibody Binding Response (RU) (EGFRvIII-mmh (human) [12]): 234 RU; HEK293/EGFRvIII MFI [13]: 258000 MFI; Second Antibody Binding Response (RU) (EGFRvIII-mmh (human) [14]): 5 RU; Second Antibody Binding Response (RU) (EGFRvIII-mmh (human) [15]): 252 RU; Second Antibody Binding Response (RU) (EGFRvIII-mmh (human) [16]): 254 RU; Second Antibody Binding Response (RU) (EGFRvIII-mmh (human) [17]): 253 RU
2.02 nM,28 min,0.329 nM,79 min,0.059 nM,2.63 h,0.000408 s⁻¹,202000 M⁻¹ s⁻¹,150 nM,2 min,0.00733 s⁻¹,49000 M⁻¹ s⁻¹,5580 MFI,3.9 fold,313000 MFI,308,0.0057 nM,20300,615000,15700 MFI,"Control II: Chimeric anti-EGFRvIII antibody (hIgG1) with the variable domains of the ""ch806"" antibody of U.S. Pat. No. 7,589,180",EC50 (EGFR-mmh (human)): 0.0095 nM; koff (EGFR-mFc (human)): 0.000146 s⁻¹; kon (EGFR-mFc (human)): 444000 M⁻¹ s⁻¹; koff (EGFRvIII-mFc (human) [2]): 7.31e-05 s⁻¹; kon (EGFRvIII-mFc (human) [2]): 1.25e+06 M⁻¹ s⁻¹; Fold Above Background [11]: 2.3 fold; Second Antibody Binding Response (RU) (EGFRvIII-mmh (human) [12]): 247 RU; HEK293/EGFRvIII MFI [13]: 313000 MFI; Ratio (EGFRvIII MFI/parental MFI) [13]: 87.4; Second Antibody Binding Response (RU) (EGFRvIII-mmh (human) [14]): 258 RU; Second Antibody Binding Response (RU) (EGFRvIII-mmh (human) [15]): 6 RU; Second Antibody Binding Response (RU) (EGFRvIII-mmh (human) [16]): 13 RU; Second Antibody Binding Response (RU) (EGFRvIII-mmh (human) [17]): 191 RU
